In publication PMC6899756, “Identification of amino acid residues of nerve growth factor important for neurite outgrowth in human dorsal root ganglion neurons” (The European Journal of Neuroscience, 2019):

Columns and labels:
[1] = biological target: T1, tropomyosin-related kinase A (TrkA) receptor (human, UniProt P04629-2 33-790, phosphotyrosine at 490 (Y490) and at 785 (Y785) after treatment of the cells with NGF); experiment: cell-based or functional assay
[2] = biological target: T1, tropomyosin-related kinase A (TrkA) …; experiment: cell-based or functional assay; remark: listed apart in the source

T1 sequence (P04629 other isoform, or with tags, fused parts or gaps): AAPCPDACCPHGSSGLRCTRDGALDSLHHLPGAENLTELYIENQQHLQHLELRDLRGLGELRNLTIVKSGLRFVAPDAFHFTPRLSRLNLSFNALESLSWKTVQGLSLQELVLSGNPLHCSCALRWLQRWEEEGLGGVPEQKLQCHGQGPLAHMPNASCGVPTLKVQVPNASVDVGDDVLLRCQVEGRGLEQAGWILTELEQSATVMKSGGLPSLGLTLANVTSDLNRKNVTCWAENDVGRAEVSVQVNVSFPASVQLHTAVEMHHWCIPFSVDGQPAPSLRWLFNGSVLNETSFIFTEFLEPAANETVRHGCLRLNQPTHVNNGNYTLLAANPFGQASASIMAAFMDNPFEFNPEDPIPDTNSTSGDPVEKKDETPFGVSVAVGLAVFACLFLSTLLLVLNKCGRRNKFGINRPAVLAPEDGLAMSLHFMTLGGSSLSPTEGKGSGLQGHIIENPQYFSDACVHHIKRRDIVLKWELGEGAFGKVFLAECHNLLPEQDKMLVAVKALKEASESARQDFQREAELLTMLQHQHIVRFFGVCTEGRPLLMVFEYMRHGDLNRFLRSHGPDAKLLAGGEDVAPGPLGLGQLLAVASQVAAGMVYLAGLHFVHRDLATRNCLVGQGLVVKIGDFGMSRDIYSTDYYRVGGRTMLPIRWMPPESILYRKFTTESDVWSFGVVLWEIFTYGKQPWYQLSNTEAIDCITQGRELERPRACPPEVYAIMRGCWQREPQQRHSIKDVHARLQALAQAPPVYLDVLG

B1: Src homology 2 domain containing transforming protein 1 (SHC1) (natural protein, UniProt P29353 1-583, looked up)
chain: MDLLPPKPKYNPLRNESLSSLEEGASGSTPPEELPSPSASSLGPILPPLPGDDSPTTLCSFFPRMSNLRLANPAGGRPGSKGEPGRAADDGEGIVGAAMPDSGPLPLLQDMNKLSGGGGRRTRVEGGQLGGEEWTRHGSFVNKPTRGWLHPNDKVMGPGVSYLVRYMGCVEVLQSMRALDFNTRTQVTREAISLVCEAVPGAKGATRRRKPCSRPLSSILGRSNLKFAGMPITLTVSTSSLNLMAADCKQIIANHHMQSISFASGGDPDTAEYVAYVAKDPVNQRACHILECPEGLAQDVISTIGQAFELRFKQYLRNPPKLVTPHDRMAGFDGSAWDEEEEEPPDHQYYNDFPGKEPPLGGVVDMRLREGAAPGAARPTAPNAQTPSHLGATLPVGQPVGGDPEVRKQMPPPPPCPGRELFDDPSYVNVQNLDKARQAVGGAGPPNPAINGSAPRDLFDMKPFEDALRVPPPPQSVSMAEQLRGEPWFHGKLSRREAEALLQLNGDFLVRESTTTPGQYVLTGLQSGQPKHLLLVDPEGVVRTKDHRFESVSHLISYHMDNHLPIISAGSELCLQQPVERKL
[1]
  plateau of the second activation phase at around 10 μg/ml NGF-K95A/Q96A in U2OS-TrkA/p75-SHC1 cells, relative to wild-type NGF (interaction between TrkA and SHC1, enzyme fragment complementation): ~300%
  second activation phase EC50 of NGF-K95A/Q96A in U2OS-TrkA/p75-SHC1 cells (interaction between TrkA and SHC1, enzyme fragment complementation): ~3 µg/mL
[2]
  EC50 of NGF-K95A/Q96A added to U2OS-TrkA/p75-SHC1 cells for the interaction between TrkA and SHC1 (enzyme fragment complementation, chemiluminescence): 0.02 µg/mL
  EC50 of NGF-R100E added to U2OS-TrkA/p75-SHC1 cells for the interaction between TrkA and SHC1 (enzyme fragment complementation, chemiluminescence): 0.00056 µg/mL
  EC50 of NGF-W99A added to U2OS-TrkA/p75-SHC1 cells for the interaction between TrkA and SHC1 (enzyme fragment complementation, chemiluminescence): 0.023 µg/mL
  EC50 of wild-type NGF added to U2OS-TrkA/p75-SHC1 cells for the interaction between TrkA and SHC1 (enzyme fragment complementation, chemiluminescence): 0.0042 µg/mL
